Publication PMC4771870

Biological target: mMBP-fused VERL-Fb (fragment of vitelline envelope receptor for lysin)
Assay: crystal structure; crystals of the mMBP-VERL-Fb fusion, space group P2(1), 2.9 Å, molecular replacement with MBP; refinement ongoing

Chain of mMBP-fused VERL-Fb (fragment of vitelline envelope receptor for lysin) (Q8WR62 25-3722): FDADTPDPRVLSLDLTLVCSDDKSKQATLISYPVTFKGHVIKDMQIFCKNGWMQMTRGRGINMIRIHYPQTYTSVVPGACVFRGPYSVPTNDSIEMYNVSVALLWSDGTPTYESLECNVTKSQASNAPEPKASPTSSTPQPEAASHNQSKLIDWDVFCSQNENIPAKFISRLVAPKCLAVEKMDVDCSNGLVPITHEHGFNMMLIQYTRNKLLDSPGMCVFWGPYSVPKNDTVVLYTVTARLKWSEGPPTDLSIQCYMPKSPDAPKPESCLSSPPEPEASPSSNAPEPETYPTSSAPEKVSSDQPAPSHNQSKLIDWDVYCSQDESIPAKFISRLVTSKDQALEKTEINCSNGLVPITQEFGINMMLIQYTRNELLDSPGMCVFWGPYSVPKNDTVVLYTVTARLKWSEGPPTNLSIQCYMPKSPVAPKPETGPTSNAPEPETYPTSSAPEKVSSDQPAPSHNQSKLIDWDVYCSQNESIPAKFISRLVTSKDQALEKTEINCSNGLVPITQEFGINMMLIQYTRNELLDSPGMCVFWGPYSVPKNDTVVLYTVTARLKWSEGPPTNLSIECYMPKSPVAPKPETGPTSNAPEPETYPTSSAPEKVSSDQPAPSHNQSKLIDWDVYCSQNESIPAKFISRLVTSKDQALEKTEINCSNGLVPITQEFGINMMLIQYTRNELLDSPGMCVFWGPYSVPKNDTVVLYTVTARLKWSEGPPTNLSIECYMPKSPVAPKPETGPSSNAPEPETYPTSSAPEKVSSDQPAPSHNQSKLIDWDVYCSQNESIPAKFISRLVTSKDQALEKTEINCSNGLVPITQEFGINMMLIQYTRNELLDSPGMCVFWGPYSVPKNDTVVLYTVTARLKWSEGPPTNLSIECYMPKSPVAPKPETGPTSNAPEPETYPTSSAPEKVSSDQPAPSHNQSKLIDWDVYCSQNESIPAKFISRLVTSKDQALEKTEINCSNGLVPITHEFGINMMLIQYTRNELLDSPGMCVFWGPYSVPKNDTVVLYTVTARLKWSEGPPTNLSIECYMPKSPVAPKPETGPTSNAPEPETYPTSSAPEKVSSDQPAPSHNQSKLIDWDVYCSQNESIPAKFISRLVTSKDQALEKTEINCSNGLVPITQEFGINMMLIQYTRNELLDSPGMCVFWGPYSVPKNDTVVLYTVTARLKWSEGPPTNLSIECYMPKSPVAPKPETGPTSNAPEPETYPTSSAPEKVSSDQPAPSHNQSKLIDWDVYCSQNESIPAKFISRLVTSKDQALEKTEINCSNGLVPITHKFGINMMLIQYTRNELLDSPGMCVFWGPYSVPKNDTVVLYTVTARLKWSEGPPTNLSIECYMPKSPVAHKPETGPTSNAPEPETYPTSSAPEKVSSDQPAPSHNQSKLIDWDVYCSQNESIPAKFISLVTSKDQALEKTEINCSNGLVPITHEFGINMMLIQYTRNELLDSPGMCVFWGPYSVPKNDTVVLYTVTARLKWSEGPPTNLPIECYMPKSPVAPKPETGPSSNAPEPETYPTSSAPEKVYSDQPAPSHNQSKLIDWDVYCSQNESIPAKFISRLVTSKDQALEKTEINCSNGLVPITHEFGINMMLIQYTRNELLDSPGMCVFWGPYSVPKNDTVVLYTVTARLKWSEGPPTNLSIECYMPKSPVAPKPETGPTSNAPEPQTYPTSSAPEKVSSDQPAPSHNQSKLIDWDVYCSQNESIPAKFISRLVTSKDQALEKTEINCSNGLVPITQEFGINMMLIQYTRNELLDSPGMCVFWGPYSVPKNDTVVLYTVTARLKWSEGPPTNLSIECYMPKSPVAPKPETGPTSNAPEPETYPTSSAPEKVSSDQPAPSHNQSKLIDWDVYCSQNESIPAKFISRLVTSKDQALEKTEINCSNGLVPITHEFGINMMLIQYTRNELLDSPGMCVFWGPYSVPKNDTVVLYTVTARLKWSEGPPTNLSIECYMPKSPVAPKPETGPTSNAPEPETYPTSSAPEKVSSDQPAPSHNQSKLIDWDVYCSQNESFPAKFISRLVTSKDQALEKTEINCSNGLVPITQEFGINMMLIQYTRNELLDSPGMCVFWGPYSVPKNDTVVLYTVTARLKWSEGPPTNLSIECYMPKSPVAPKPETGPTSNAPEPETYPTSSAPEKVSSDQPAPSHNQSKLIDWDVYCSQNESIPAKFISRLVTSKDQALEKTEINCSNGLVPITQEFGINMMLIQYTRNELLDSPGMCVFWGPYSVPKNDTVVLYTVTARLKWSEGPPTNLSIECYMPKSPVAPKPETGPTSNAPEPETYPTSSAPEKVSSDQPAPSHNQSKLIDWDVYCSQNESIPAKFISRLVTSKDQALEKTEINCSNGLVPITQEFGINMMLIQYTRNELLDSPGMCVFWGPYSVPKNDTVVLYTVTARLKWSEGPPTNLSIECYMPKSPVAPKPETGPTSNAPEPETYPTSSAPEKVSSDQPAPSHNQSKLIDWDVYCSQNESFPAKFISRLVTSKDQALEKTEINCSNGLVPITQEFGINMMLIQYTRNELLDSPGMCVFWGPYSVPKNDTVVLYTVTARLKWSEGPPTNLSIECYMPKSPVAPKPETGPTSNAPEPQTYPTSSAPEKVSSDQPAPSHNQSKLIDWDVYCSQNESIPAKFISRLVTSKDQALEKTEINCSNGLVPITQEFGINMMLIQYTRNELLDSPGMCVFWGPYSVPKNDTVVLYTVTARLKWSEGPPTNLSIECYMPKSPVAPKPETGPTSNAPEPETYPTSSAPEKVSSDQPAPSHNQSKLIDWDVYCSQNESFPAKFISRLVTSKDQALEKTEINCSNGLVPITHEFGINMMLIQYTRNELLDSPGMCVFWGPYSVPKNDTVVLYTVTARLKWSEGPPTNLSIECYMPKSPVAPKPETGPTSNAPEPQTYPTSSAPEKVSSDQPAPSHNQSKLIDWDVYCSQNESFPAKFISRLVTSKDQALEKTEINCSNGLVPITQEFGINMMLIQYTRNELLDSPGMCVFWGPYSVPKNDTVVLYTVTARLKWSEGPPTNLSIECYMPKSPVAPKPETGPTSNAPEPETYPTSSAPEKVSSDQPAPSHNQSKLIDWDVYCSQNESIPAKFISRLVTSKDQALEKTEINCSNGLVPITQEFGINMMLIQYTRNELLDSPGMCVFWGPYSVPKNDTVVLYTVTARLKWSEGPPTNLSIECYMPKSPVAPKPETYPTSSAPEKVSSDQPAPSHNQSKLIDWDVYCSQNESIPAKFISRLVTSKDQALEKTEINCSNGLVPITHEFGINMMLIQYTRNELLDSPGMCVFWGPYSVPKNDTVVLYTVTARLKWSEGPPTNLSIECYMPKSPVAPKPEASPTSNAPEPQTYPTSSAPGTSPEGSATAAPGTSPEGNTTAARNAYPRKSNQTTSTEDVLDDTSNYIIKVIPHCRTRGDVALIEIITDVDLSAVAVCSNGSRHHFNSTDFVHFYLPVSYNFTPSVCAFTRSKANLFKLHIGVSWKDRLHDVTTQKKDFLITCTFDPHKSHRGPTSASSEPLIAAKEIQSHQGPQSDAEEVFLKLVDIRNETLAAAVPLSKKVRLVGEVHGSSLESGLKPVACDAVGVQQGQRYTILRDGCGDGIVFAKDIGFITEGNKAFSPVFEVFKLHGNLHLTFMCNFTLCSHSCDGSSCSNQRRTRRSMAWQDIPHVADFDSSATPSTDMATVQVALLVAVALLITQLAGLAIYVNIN

- stoichiometry N: 2
Substance: mMBP-fused VERL-Fb (fragment of vitelline envelope receptor for lysin) (domain or fragment)
